# Numbering of substitutions follows the chain as printed. In names and notes the source's numbering stands.
# T1: EsCas13d, nuclease-dead (Eubacterium siraeum, UniProt B0MS50, R295A;H300A;R849A;H854A)
# T1 sequence: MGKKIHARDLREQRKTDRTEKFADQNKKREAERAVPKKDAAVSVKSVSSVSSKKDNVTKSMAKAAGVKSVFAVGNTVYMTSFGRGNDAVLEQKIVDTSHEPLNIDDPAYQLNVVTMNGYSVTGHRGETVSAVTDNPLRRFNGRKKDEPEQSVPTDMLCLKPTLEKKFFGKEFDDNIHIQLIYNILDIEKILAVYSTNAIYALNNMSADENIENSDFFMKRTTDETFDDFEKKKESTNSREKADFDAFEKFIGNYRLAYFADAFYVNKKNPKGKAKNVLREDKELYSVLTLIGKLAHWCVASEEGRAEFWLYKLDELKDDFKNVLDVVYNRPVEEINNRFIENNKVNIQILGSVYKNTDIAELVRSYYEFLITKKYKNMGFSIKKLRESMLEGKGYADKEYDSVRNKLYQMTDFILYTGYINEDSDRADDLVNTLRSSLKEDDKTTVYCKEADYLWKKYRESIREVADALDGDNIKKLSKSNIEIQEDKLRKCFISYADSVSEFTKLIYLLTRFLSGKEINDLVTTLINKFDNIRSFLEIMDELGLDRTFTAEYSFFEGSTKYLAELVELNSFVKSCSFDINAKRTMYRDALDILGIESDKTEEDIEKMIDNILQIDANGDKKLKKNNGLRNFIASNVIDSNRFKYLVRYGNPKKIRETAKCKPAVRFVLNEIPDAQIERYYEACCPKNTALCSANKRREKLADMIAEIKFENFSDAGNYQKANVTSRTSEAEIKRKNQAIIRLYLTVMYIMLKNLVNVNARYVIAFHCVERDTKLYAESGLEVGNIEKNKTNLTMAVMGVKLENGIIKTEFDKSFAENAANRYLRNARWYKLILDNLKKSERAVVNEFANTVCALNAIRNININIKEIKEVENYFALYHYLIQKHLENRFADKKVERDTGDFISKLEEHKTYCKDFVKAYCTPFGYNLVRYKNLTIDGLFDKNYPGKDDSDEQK
# B1: target 1 insA 3' of 19,insU 3' of 12 (mixed)
# RNA 1: CACCCGUGCAAAAAUGCAGGGGUCUAAAACUGAGCGGAUAACCUCUCUAUGG
# RNA 2: GGGAAUGGAUCCACAUCUACGAAUUCGUACCAUAAGAGAGGUUUAUCCGCUCACCGAGAUCGGAAGAGCACACGU
# B2: target 1 insC 3' of 17,insU 3' of 5 (mixed)
# RNA 1: B1 RNA 1
# RNA 2: B1 RNA 2 with A35G, G36C, U44A, A45U, U46C, C48G, G49U
# B3: target 1 C7A,A9G (mixed)
# RNA 1: B1 RNA 1
# RNA 2: GGGAAUGGAUCCACAUCUACGAAUUCGUACCAUAGAGAGGUUGUACGCUCACCGAGAUCGGAAGAGCACACGU
# B4: target 1 del11,del22 (mixed)
# RNA 1: B1 RNA 1
# RNA 2: GGGAAUGGAUCCACAUCUACGAAUUCGUACAUAGAGAGGUAUCCGCUCACCGAGAUCGGAAGAGCACACGU
# B5: target 1 insU 3' of 18,insU 3' of 1 (mixed)
# RNA 1: B1 RNA 1
# RNA 2: GGGAAUGGAUCCACAUCUACGAAUUCGUACCAUAUGAGAGGUUAUCCGCUCAUCCGAGAUCGGAAGAGCACACGU
# B6: target 1 insC 3' of 19,insA 3' of 19 (mixed)
# RNA 1: B1 RNA 1
# RNA 2: B1 RNA 2 with A34C, G36A, A37G, G38A, A39G, G40A, U42G
# B7: target 1 C7G,U11A (mixed)
# RNA 1: B1 RNA 1
# RNA 2: B3 RNA 2 with U41A, G43A, A45G
# B8: target 1 U8G,A9G (mixed)
# RNA 1: B1 RNA 1
# RNA 2: B3 RNA 2 with U44G, A45C
# B9: target 1 insG 3' of 19,insA 3' of 15 (mixed)
# RNA 1: B1 RNA 1
# RNA 2: B1 RNA 2 with A34G, G40A, U42G
# B10: target 1 del13 (mixed)
# RNA 1: B1 RNA 1
# RNA 2: GGGAAUGGAUCCACAUCUACGAAUUCGUACCAUAGAGAGUUAUCCGCUCACCGAGAUCGGAAGAGCACACGU
# B11: target 1 insU 3' of 9,insU 3' of 6 (mixed)
# RNA 1: B1 RNA 1
# RNA 2: GGGAAUGGAUCCACAUCUACGAAUUCGUACCAUAGAGAGGUUAUUCCUGCUCACCGAGAUCGGAAGAGCACACGU
# B12: target 1 U8A,G12U (mixed)
# RNA 1: B1 RNA 1
# RNA 2: B3 RNA 2 with G40U, G43A, U44A, A45C
# B13: target 1 G17U,U19C (mixed)
# RNA 1: B1 RNA 1
# RNA 2: B3 RNA 2 with U33C, G35U, G43A, A45C
# B14: target 1 A1U,C6A (mixed)
# RNA 1: B1 RNA 1
# RNA 2: B3 RNA 2 with G43A, A45C, C46A, A51U
# B15: target 1 complement block 9-12 (mixed)
# RNA 1: B1 RNA 1
# RNA 2: B3 RNA 2 with G40C, U41A, U42A, G43U, A45C
# B16: target 1 insA 3' of 3,insG 3' of 2 (mixed)
# RNA 1: B1 RNA 1
# RNA 2: B11 RNA 2 with U45C, C47G, U48C, G49U, C50A, U51C, C52G
# B17: target 1 complement block 6-9 (mixed)
# RNA 1: B1 RNA 1
# RNA 2: B3 RNA 2 with G43U, U44A, A45G, C46G
# B18: target 1 insU 3' of 12,insG 3' of 10 (mixed)
# RNA 1: B1 RNA 1
# RNA 2: B11 RNA 2 with A43U, U44G, U45A, C46U, U48C
# B19: target 1 insU 3' of 9,insA 3' of 6 (mixed)
# RNA 1: B1 RNA 1
# RNA 2: B11 RNA 2 with U48A
# B20: target 1 C2G,U11C (mixed)
# RNA 1: B1 RNA 1
# RNA 2: B3 RNA 2 with U41C, G43A, A45C, C50G
# B21: target 1 insC 3' of 10,insA 3' of 5 (mixed)
# RNA 1: B1 RNA 1
# RNA 2: B11 RNA 2 with A43C, U44A, U48G, G49A
# B22: target 1 C2A,C22A (mixed)
# RNA 1: B1 RNA 1
# RNA 2: B3 RNA 2 with C30A, G43A, A45C, C50A
# B23: target 1 G12C,C22U (mixed)
# RNA 1: B1 RNA 1
# RNA 2: B3 RNA 2 with C30U, G40C, G43A, A45C
# B24: target 1 insU 3' of 20,insA 3' of 6 (mixed)
# RNA 1: B1 RNA 1
# RNA 2: B1 RNA 2 with A34U, U44A, A45U, U46C, C48A
# B25: target 1 U10G,A14C (mixed)
# RNA 1: B1 RNA 1
# RNA 2: B3 RNA 2 with A38C, U42G, G43A, A45C
# B26: target 1 insA 3' of 21,insA 3' of 11 (mixed)
# RNA 1: B1 RNA 1
# RNA 2: B1 RNA 2 with U33A, A34U, U43A
# B27: target 1 C6A (mixed)
# RNA 1: B1 RNA 1
# RNA 2: B3 RNA 2 with G43A, A45C, C46A
# B28: target 1 insU 3' of 7,insG 3' of 1 (mixed)
# RNA 1: B1 RNA 1
# RNA 2: B11 RNA 2 with U45C, C46U, U48G, G49C, C50U, U51C, C52A, A53G
# B29: target 1 G12U,A18G (mixed)
# RNA 1: B1 RNA 1
# RNA 2: B3 RNA 2 with A34G, G40U, G43A, A45C
# Target: T1, EsCas13d, nuclease-dead
# Test: crRNA (strand 1, pre-loaded); Mg2+; 40 mM Tris-HCl pH 7.5, 150 mM NaCl, 6 mM MgCl2, 1 mM DTT, 0.1% Tween-20, 0.2 mg/ml BSA; 25 C; 10 min per concentration, then washed
# Conditions: tags: His6-TwinStrep-SUMO cleaved; N-terminal SNAP kept (SNAP-Surface 488); label: 3' end held by stalled T7 RNA polymerase
row,Binder,Kd
1,B1,17.9 ± 1.2 nM
2,B2,35.2 ± 3.2 nM
3,B3,11.5 ± 0.5 nM
4,B4,78 ± 33 nM
5,B5,33 ± 1.8 nM
6,B6,31.3 ± 2.9 nM
7,B7,25 ± 4 nM
8,B8,19.1 ± 1.3 nM
9,B9,56 ± 7 nM
10,B10,8.6 ± 0.6 nM
11,B11,46 ± 6 nM
12,B12,13.1 ± 0.8 nM
13,B13,14.4 ± 0.8 nM
14,B14,7.5 ± 0.4 nM
15,B15,19.9 ± 2.7 nM
16,B16,7.05 ± 0.31 nM
17,B17,7.7 ± 0.5 nM
18,B18,13.1 ± 0.5 nM
19,B19,23.5 ± 2.7 nM
20,B20,7.4 ± 0.4 nM
21,B21,10.4 ± 1.1 nM
22,B22,17.8 ± 3.3 nM
23,B23,23.5 ± 1.5 nM
24,B24,15.9 ± 1.1 nM
25,B25,94 ± 23 nM
26,B26,36.6 ± 2.9 nM
27,B27,6.17 ± 0.3 nM
28,B28,13.8 ± 0.6 nM
29,B29,78 ± 16 nM

# — publication PMC10786891, “Massively parallel profiling of RNA-targeting CRISPR-Cas13d”
